Earlier results on two substances are cited in paper PMC8689690.

pKd: −log10 of the molar value.

This series deals with IL-28R1 (Homo sapiens) (UniProt Q8IU57). In words: ELISA.
UniProt Q8IU57, sequence (Q8IU57 21-228): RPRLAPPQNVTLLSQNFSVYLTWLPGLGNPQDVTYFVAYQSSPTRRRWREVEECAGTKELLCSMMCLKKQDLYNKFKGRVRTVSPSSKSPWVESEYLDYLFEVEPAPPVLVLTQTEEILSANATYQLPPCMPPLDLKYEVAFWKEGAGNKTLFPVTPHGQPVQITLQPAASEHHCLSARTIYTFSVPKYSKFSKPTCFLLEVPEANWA

Regarding IFNL1 (from UniProt Q8IU54), the pKd is 7.82. With IFNL3 (from UniProt Q8IZI9), the pKd is 7.19.
